Assay: soluble on expression in E. coli; label from the status in PepcDB or PDB records

| Sequence | soluble on expression in E. coli |
| --- | --- |
| MSQFGGGKPPGQWHRPAAPGGAPQLSGFSAVNFGGVPMVGMGVPMGMVNQAAFSSQGVLGMQGIMGAVPQQSLPQQQPNFQQQNSLQQGTNMQQNSGAKNQRTFVGVVTKMLDTYGFVDDDVFFQHSVIRGSHPRVGDKVMVEANYNPSMPFKWNAYRIQLLNAATQQEPARQAPQQQQMHQPQRGGQESQRWGAAPASGTSDRADRNGGARGNDSPLHRSSAARRHSPPPRRASPPRRTSSPKRDARPAREIRDSREPREVRRSPPPRRAASPRKASSPSAPAKNDRKRERSPSGSVAPSVRRESASPPRRRARIIPRYECRAQKPALLSPIVSGSVLRHRYSKLYLPSDYVDLSFDWVRSFQLDLSLDLSNPIQFHVFNKDVDFIGEEEIQDLDPEDADHRHQVKVLLLSHAGKSEVVKKAFCLMADGTTDDHQEPQSLLKNLHFLVGARGKETMGIGGSWSPSQDGADPNSATTMIRTAVRTTKSLTGIDLSSVSQWFSMVQIRYYRADKQRIDHVNYLLPDTQSLALDDAQWMLAETKIAEQLKAKLANVDALKIEEDEPPVVMMVEESESVVAAAAAAADVVPEQSIPDVKKEEELQAEEPKVLDNVKESIVLLWAEESDVVADVSMNSTTDADNSEAPAAENGQGPTNWSNLDPKSMKVAELRVELELRGLETKGIKTLLVQRLQTALDTEKAAEASVAARDVEMRDAAENAVKQEGGEENPAAFIAPSIEETKAKTEAEAKKEAEEAEKRKKKEEQLEKEKKEKREALEKHYQLPKDKKILVFPSKSFKSGKFDCKVLSLSSLLDYRHDDNKENQFEVSLFAEAFKEMIERNAAFTIYETLANCGDRDAEKKRRDEAREKPVEPKEPKEPAETTEKAAEGEEKKDEKEEKRDEKKDEKREEKREKVERIDLKSVVANRTVYEAFSLFDSNLCGYLTEKDIEEILYNGEFGISRGQIQKLAKKLSVRDKINYRHLTDVLTDMDGNVRHTPGGADDVVETDDLIRGFGYNLAKSMEPADSGAAVKSSEVSASSDGVVIINGSAVNVVQKMKLLKQVEKERDEAKSTVSEQLSLIEQLREAKAEIDKKKKDIDSHYHKSNKKLNETSAQLKSTQDENSALKQALQDCKRHADRIFSVVEKVMPPPPKKEEKSKKDEKEKTDKKDDKVSEKSAEKSTEEPSQEVPASAEQAAEPSTEAEPIVIDESEDKDAEVVEESKE | not soluble |
| MSQFISLTQYQLIEVQGADAEKYLQGQLTSDVVRLASGATTLTAHCDPKGKMNAIYRLFKVSSEQFFLLVKKDILPSGLDALKKYAVFSKVSFDLRDWQIIGVIGEKCGKITPNFSLEIDEKRSILLNETELPVNFNGDEKIWEVADIQAGLPNLSPQTQNEFIPQALNLQAIEQAISFTKGCYIGQETVARAKYRGANKRAMFIFKVQTQQEAEIGSEIEMQLEANWRKTGTITSAVNLDGVLWLQVVMNNDIDSEQQFRLLNSEILLERVQLPYSITE | not soluble |
| MSQIISTLNNIDLVTQDKVNLISNMQIQAKYENAEYKSFIDQLIDNLNTTRSIDIYNLFLSLNSEICLNLDTVDNISKIISSYLSILNTNFTRISPSESKQKNQLAEKGINKFLVTMDANFAQMQNQDKLLPNNIDSIIEIVQEVIIFFEKNNLNYNSDFKIQLNKTLRKIKSSLILKDQKNDTYSDKESINQVEATITDQKTIQGSEKWKTLIEKIEVLKALVESERIFETSIVYNDIQNLLVNFDPKEYFPEIFFPLYKKIAPFIGNIHKNIDYYSSSIQWSIAQKMYNIDYKSFLDTLEKMPENNFLNSSSDITKNFFYETSSEVEKTPIEEHKIIADTDAIKEEIVIKQRTNNKKNQNDPVEKISNKIDEDYFEDLFDI | not soluble |
| MSQISIILPTYNVEKYIARALESCINQTFKDIEIIVVDDCGNDKSIDIAKEYASKDDRIKIIHNEENLKLLRARYEGAKVATSPYIMFLDSDDYLELNACEECIKILDMGGGGKIDLLCFEAFITNAKKSIKKLNIKQGKYNNKEFTMQILKTKNPFWTMWAKIIKKDIYLKAFNMLNLKKEIKINMAEDALLYYPLTILSNEIFYLTQPLYTQHVNSNSITNNINSLEANIQEHKIVLNVLKSIKNKKTPLYFLIIYLLKIQLLKYEQNFNKRNINLIYYKINILYQKYQFKWKKFLYNLIP | not soluble |
| MSQLINLPMDQILYLSTSDIKHHVHLQTIHTLMDIRANLADFKKIHKKLYPCHRSYIVNTDMIISVNKTNYEATLINGQVLPVSRMKIGKIAQIVEERGRLEHHHHHH | not soluble |
| MSQLMQLKDVAESTRLGPLSGEVSAGEILHLVGPNGAGKSTLLARMAGLTSGEGSIRFGGAPLEAWATATLAQHRAYLAQQQNPPFAMPVWHYLTLHQPDKTRTGQLNEVADMLGLGDKLGRSVNQLSGGEWQRVRLAAVVLQIHPDANPVGQLLLLDEPMNSLDVAQQNALDRVLHHLCQAGIAIVMSSHDLNHTLRHAHKAWLLKRGKLIACGRREEVLTPSYLAQAYGLRFRRLDVEGHPMLISAT | not soluble |
| MSQLPGLSRETRESIAMYHLRVPQTEEELERYYQFRWEMLRKPLHQPKGSERDAWDAMAHHQMVVDEQGNLVAVGRLYINADNEASIRFMAVHPDVQDKGLGTLMAMTLESVARQEGVKRVTCSAREDAVEFFAKLGFVNQGEITTPTTTPIRHFLMIKPVATLDDILHRGDWCAQLQQAWYEHIPLSEKMGVRIQQYTGQKFITTMPETGNQNPHHTLFAGSLFSLATLTGWGLIWLMLRERHLGGTIILADAHIRYSKPISGKPHAVADLGALSGDLDRLARGRKARVQMQVEIFGDETPGAVFEGTYIVLPAKPFGPYEEGGNEEELEHHHHHH | not soluble |
| MSQLRADKKGTHRVAFDRNKKKLLKAATVCGICGKPVDKSLKYPHPLSAAIDHIVPIAKGGHPSALENLQLTHWQCNRQKSDKLFANQASNEPKTIGNRNLPQSRDWSSFAFKKLEHHHHHH | soluble |
| MSQMAQSLRSQFATDKQVLQKFLNLDQKGMYQALYIWIDGSGENIRAKTRTFDFEPTDPEKLPIWNFDGSSTGQAEGADSDVYLKPVAIYPDPFRQGKNKLVMCETYDNKKKPTATNYRQRCKEVMEKAADQHPWFGMEQEYTLLDIDGHPFGWPKNGFPGPQGPYYCGVGANKVYGRDIVEAHYRACLYAGIQISGTNAEVMPGQWEFQVGPCEGIQMGDQLWVARYLLQRVAEEFGVIASFDCKPIKGDWNGAGCHTNFSTDKMRNPGGIDEIMSAINKLSLVHPQHIAYYDPHGGKDNERRLTGLHETASIDKFSYGVASRASSIRIPRSTDDDGYGYFEDRRPSSNCDPYTVTGALVRTVCLEGAERKLSMMYVPSQAPNITKH | not soluble |
| MSQNASVGIVMPQKIPFEMPLVLENGKTLPRFDLMIETYGELNAEKNNAVLICHALSGNHHVAGRHSAEDKYTGWWDNMVGPGKPIDTERFFVVGLNNLGGCDGSSGPLSINPETGREYGADFPVVTVKDWVKSQAALADYLGIEQWAAIVGGSLGGMQALQWTISYPERVRHALVIASAPKLSTQNIAFNDVARQAILTDPDFNEGHYRSHNTVPARGLRIARMMGHITYLAEDGLGKKFGRDLRSNGYQYGFGVEFEVESYLRYQGDKFVGRFDANTYLLMTKALDYFDPAADFGDSLTRALQNVKAKFFVASFSTDWRFAPERSHELVKALIAAQKSVQYIEVKSAHGHDAFLMEDEAYMRAVAAYMNNVYKECQQ | not soluble |
| MSQRVSYYEIAPEGMKIMMDMEKYTKQSSINRTTRELIKIRVSQMNGCAFCIDMHTSDARKMGETEQRIYCLHAWNECDFYSPEEKAALELSEHITLIPSKRVPDELYHRVREHYDEEQYVDLVLIINQINSWNRISIAMGNRAASK | soluble |
| MSQSKVAMKKDSMRKNKKLVINIALDKEVLASRVEADHDLGSVRDEKERLESSERRREVCSKAEDIVDKAIDNHSRVRGDGIMREADVGTGLSGALNRLREQGTFKEEGKVVGVKDNNHEDDRFKDRFKDIQIQRVNKWGRIMTEKEAYRSLCHGFHGKGPGKKKQEKQRKKHEDKSKQMESSERSVERIREIHAISKTPYIVL | soluble |
| MSQVQNNSSVSELLASNSGSIKSYRKDEEDPQDRFLKLLVTQMQNQDPLSPMDNAEVTSQMAQISTVSGIDKLNTTLEKLVADSDARRSFEAATMIGRGVLVPGTDMQLENQAAIGGFELAESVDKLTVTVKDSAGITVREIDLGAQAAGVGTFVWDGMANNGNAAADGQYSFALKAIRADKEVSSSALAFGSVSSAQAGKDGALLEVGRLGYVGMDAVKKIF | not soluble |

Reference: the DeepSol protein solubility set
